Results as given in article PMC7272640, “Molecular docking, synthesis and biological evaluation of Vascular Endothelial Growth Factor (VEGF) B based peptide as antiangiogenic agent targeting the second domain of the Vascular Endothelial Growth Factor Receptor 1 (VEGFR1D2) for anticancer application” (Signal Transduction and Targeted Therapy, 2020).
Bridges are numbered along the chain shown (N, C = ends).

Columns and labels:
[1] = target: entire extracellular portion of VEGFR1; details: VEGFA to entire extracellular portion of VEGFR1; no reference given; cited from earlier work
Procedure: (§1) Subsequently, to verify the ability of VGB3 to form a complex with VEGFR1D2, microscale thermophoresis (MST) measurements were performed using a VEGFR1D2-labeled with VGB3 at increasing concentrations. As well as measuring the Kd between VGB3 and its receptor this functional test will also confirm whether the refolded protein VEGFR1D2 assumes the correct conformation. Fluorescently labeled VEGFR1D2 purified and titrated as 1:1 with VGB3.

VEGFR1 D2 = details: quantity not named as Kd in the text; cited from earlier work
Procedure: as §1

VEGFR1 versus VEGFR2 = details: cited from earlier work
Text: Tumor angiogenesis is regulated by the binding of VEGF to receptors (VEGFRs). The major mediator of tumor angiogenesis is VEGFA, more commonly referred to as VEGF. […] However, the role of the VEGFR1 in VEGF-mediated angiogenesis remains a mystery.

[2] = target: VEGFR1 domain 2 (Homo sapiens) (UniProt P17948); details: cited from earlier work
[3] = target: T1, His-tagged VEGFR1D2 (second extracellular domain of Vascular Endothelial Growth Factor Receptor 1) (UniProt P17948 129-226, fluorescently labeled); assay: MST; fixed concentration of fluorescently labeled VEGFR1D2; VGB3 titrated at increasing concentrations, initial concentration of ligand 0.25 mM; details: both partners purified
T1 construct: VEGFR1 (Flt-1), second extracellular domain; The PDB entries are the cited complexes of VEGFR1D2 used for the design, not necessarily the limits of this construct

[4] = target: VEGFR-1 (as used in the ELISA-based displacement assay) (UniProt P17948); assay: ELISA; VEGFR-1-binding ELISA-based displacement assay; displacement of btVEGF165 (100 pM) by VGB3
[5] = target: VEGFR-1 (as used in the ELISA-based displacement assay) (UniProt P17948)

Chain of VEGFR-1 (as used in the ELISA-based displacement assay) (P17948 27-1338): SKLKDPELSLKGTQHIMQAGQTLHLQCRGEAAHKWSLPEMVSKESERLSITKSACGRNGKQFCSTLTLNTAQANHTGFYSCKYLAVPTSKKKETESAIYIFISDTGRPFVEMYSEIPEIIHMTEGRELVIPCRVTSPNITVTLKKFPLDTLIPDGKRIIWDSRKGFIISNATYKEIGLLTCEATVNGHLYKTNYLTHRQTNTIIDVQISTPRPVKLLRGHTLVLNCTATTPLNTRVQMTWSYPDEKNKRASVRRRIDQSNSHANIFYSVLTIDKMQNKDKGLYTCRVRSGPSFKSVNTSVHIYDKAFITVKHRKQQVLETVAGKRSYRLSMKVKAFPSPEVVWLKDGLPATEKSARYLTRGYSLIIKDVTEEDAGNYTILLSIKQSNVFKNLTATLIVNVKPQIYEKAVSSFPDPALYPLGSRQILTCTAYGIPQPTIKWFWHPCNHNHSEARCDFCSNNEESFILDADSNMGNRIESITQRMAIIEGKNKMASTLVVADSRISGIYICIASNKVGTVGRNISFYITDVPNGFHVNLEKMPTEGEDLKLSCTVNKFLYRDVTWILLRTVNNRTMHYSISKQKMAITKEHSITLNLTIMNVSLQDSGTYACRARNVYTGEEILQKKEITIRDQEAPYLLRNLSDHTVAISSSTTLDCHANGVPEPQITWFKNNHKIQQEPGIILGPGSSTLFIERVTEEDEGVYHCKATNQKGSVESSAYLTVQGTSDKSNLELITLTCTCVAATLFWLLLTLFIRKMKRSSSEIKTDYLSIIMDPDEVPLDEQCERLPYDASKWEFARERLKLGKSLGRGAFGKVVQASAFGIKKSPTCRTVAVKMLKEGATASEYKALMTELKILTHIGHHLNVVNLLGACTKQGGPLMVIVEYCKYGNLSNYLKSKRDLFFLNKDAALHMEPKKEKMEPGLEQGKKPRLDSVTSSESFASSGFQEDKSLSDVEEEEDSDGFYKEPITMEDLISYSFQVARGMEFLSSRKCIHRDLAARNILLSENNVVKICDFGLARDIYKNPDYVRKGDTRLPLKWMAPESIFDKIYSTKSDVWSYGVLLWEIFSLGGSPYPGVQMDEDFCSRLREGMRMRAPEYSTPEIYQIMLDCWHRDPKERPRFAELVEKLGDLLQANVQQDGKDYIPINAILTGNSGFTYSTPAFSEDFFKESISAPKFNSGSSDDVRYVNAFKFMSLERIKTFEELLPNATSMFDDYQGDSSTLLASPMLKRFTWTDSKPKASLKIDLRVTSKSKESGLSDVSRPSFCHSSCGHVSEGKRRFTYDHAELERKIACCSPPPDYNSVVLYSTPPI
T1 sequence (P17948 129-226): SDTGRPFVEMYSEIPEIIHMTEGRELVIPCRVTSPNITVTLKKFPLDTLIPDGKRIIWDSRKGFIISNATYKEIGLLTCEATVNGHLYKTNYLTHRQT
Chain of VEGFR1 domain 2 (Homo sapiens) (P17948 151-214): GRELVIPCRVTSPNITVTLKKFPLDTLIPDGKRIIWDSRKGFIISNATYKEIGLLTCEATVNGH

In the case of VEGF, the Kd [1] is given as ~50 nM, the “tight association between VEGFR1 D2 and VEGF” value (VEGFR1 D2) is given as 113 pM and the “affinity of VEGFR1 for VEGF, times higher than VEGFR2” value (VEGFR1 versus VEGFR2) is given as 10 times.

For VEGFA (from UniProt P15692), the Kd [2] is given as 50 nM.

B1: VGB3 (mimetic decapeptide based on VEGFB) (peptide)
peptide: H-ECRPPDDGLC-OH
modifications: disulfide 2-10 (inferred)
notes: VEGFB, strand beta7, printed as 102-ECRP-105; VEGFB, loop connecting beta3 to beta4, printed as 62-PDDGL-66; Cys residue added to the C terminus to make the disulfide bond; also called VGB3 peptide; source: synthetic peptide (solid-phase peptide synthesis)
In the case of B1, the Kd [3] is reported as 1960 ± 690 nM, the “stoichiometry N” value [3] is reported as 1 and the percent displacement of btVEGF165 (100 pM) at 100 μM VGB3 [4] is reported as 63%. The inhibition of VEGF165 (0.75 pM)-stimulated proliferation of 4T1 mammary carcinoma cells (MTT assay), IC50 [5] was 30 nM.
